Measured values taken from patent US20260176358A1 (JIANGSU HENGRUI PHARMACEUTICALS, published 2026).
Changes are numbered by the printed parent chain.

B1: HJ-3 (bispecific antibody)
chain 1: not shown
chain 2: DIQMTQSPSSVSASVGDRVTITCRASQDIANYLSWYQQKPGKSPKLLIYGTSNLEVGVPSRFSGSRSGTDFTLTISSLQPEDFATYYCLQDKEFPRTFGGGTKVEIKGGGGSSGAPRFLTRPLAFVVSVGKDATLSSQIVGNPTPQVSWEKDKQPVTAGARFRLAQDGDLYRLKILDLQLSDSGQYVSRARNAIGEAFACLGLQVDAEA
chain 3: EVQLVQSGAEVKKPGSSVKVSCKASGYTFSNYLIEWVRQAPGQGLEWIGVIDPGVGDTNYNENFKGRATLTADKSTSTAYIELSSLRSEDTAVYYCAREDNTGTAFDYWGQGTTVTVSSASTKGPSVFPLAPSSKSTSGGTAALGCLVKDYFPEPVTVSWNSGALTSGVHTFPAVLQSSGLYSLSSVVTVPSSSLGTQTYICNVNHKPSNTKVDKKVEPKSCDKTHTCPPCPAPEAAGGPSVFLFPPKPKDTLMISRTPEVTCVVVDVSHEDPEVKFNWYVDGVEVHNAKTKPREEQYNSTYRVVSVLTVLHQDWLNGKEYKCKVSNKALPAPIEKTISKAKGQPREPQVCTLPPSREEMTKNQVSLSCAVKGFYPSDIAVEWESNGQPENNYKTTPPVLDSDGSFFLVSKLTVDKSRWQQGNVFSCSVMHEALHNHYTQKSLSLSPGKDYKDDDDK
chain 4: SIVMTQTPLSLSVTPGQPASISCKASQSVSSDVTWYLQKPGQSPQLLIYYVSEHYTGVPDRFSGSGYGTDFTLKISRVEAEDVGVYYCQQHHRFPLTFGQGTKLEIKRTVAAPSVFIFPPSDEQLKSGTASVVCLLNNFYPREAKVQWKVDNALQSGNSQESVTEQDSKDSTYSLSSTLTLSKADYEKHKVYACEVTHQGLSSPVTKSFNRGEC
B2: HJ-7 (bispecific antibody)
chain 1: not shown
chain 2: B1 chain 2 with L123K, F125S, S137C, T144F, A160V, S188C, I194H
chain 3: EVQLVQSGAEVKKPGSSVKVSCKASGYTFSNYLIEWVRQAPGQGLEWIGVIDPGVGDTNYNENFKGRATLTADKSTSTAYIELSSLRSEDTAVYYCAREDNTGTAFDYWGQGTTVTVSSASTKGPSVFPLAPSSKSTSGGTAALGCLVKDYFPEPVTVSWNSGALTSGVHTFPAVLQSSGLYSLSSVVTVPSSSLGTQTYICNVNHKPSNTKVDKKVEPKSCDKTHTCPPCPAPEAAGGPSVFLFPPKPKDTLMISRTPEVTCVVVDVSHEDPEVKFNWYVDGVEVHNAKTKPREEQYNSTYRVVSVLTVLHQDWLNGKEYKCKVSNKALPAPIEKTISKAKGQPREPQVCTLPPSREEMTKNQVSLSCAVKGFYPSDIAVEWESNGQPENNYKTTPPVLDSDGSFFLVSKLTVDKSRWQQGNVFSCSVMHEALHNHYTQKSLSLSPGK
chain 4: B1 chain 4
B3: HJ-9 (bispecific antibody)
chain 1: not shown
chain 2: B1 chain 2 with G108R, G109T, G110V, G111A, R121C, L123K, F125S, T144F, A160V, I194H
chain 3: B2 chain 3
chain 4: B1 chain 4
B4: HJ-10 (bispecific antibody)
chain 1: not shown
chain 2: DIQMTQSPSSVSASVGDRVTITCRASQDIANYLSWYQQKPGKSPKLLIYGTSNLEVGVPSRFSGSRSGTDFTLTISSLQPEDFATYYCLQDKEFPRTFGGGTKVEIKRTVASSGAPRFLTRPKASVVSVGKDATLSCQIVGNPFPQVSWEKDKQPVTAGVRFRLAQDGDLYRLKILDLQLSDSGQYVCRARNAHGEAFACLGLQVDAEA
chain 3: B2 chain 3
chain 4: B1 chain 4
B5: HJ-5 (bispecific antibody)
chain 1: not shown
chain 2: B1 chain 2 with L123K, F125S, T144F, A160V, I194H
chain 3: B2 chain 3
chain 4: B1 chain 4
B6: HJ-11 (bispecific antibody)
chain 1: not shown
chain 2: B4 chain 2 with A115C
chain 3: B2 chain 3
chain 4: B1 chain 4
B7: HJ-6 (bispecific antibody)
chain 1: not shown
chain 2: B1 chain 2 with R121C, L123K, F125S, T144F, A160V, I194H
chain 3: B2 chain 3
chain 4: B1 chain 4
B8: HJ-8 (bispecific antibody)
chain 1: not shown
chain 2: B4 chain 2 with C137S, C188S
chain 3: B2 chain 3
chain 4: B1 chain 4
B9: C9#-CHI (antibody, human IgG1, kappa, V domains shown)
VH: EVQLQQSGPVLVKPGASVKMSCKASGYTFTDYYMNWVKQSLGKSLEWIGVINPYNGRTTYNRKFKGKATLTVDKSSSTAYMELNSLTSEDSAVYYCASLLIRPHYFDYWGQGTTLTVSS
VL: DIVMTQSQKFMATSVGDRVSVTCKASQNVGTNVAWYQQKPGQSPKALIYSASYRYSVVPDRFTGSGSGTDFTLTIRNVQSEDLAEYHCQQYNFYPYTFGAGTKLELKR
notes: chimeric: murine variable regions fused to human constant regions; also called C9#-CH1
B10: C28#-CHI (antibody, human IgG1, kappa, V domains shown)
VH: EVQLQQSGPELVKPGASVKISCEASGYTFTDYYMNWVKQSHGKSLEWIGDINPNNGVTTYNQKFKGKATLTVDKSSSTAYMELRSLTSEDSAVYYCASIIIVPDYFDYWGQGTTLTVSS
VL: B9 VL with Q6H, A12S, T31S, Q38E, V57G, R76S, H87F, F93S, A100G, L106I
notes: chimeric: murine variable regions fused to human constant regions; also called C28#-CH1
B11: C21#-CHI (antibody, human IgG1, kappa, V domains shown)
VH: B10 VH with K19R, E23K, K38R, G42R, V57G, T59N, D104N
VL: DIVMTQSQKFMSTSVGDRVSVTCKASQNVDTNVAWFQQRPGQSPKALIYSASYRYSGVPDRFTGSGSGTDFTLTISNVQSEDLADYFCQQYNNYPYTFGGGTKLEIER
notes: chimeric: murine variable regions fused to human constant regions; also called C21#-CH1
B12: C1#-CHI (antibody, human IgG1, kappa, V domains shown)
VH: QVQLQQSGAELVRPGSSVKISCKASGYTFSTSWMNWVKQRPGQGLEWIGQIYPGDGYTNYNGKFRGKATLTADKSSSTAYMQLSSLTSEDSAVYFCAGDYEALWGQGTTLTVSS
VL: DVVMTQTPLSLPVSLGDQASISCRSSQSLVHSNGNTYFHWYLQRPGQSPKLLIYEVSNRFSGVPDRFSGSGSGTDFTLKISRVEAEDLGVYFCSQSTHVPFTFGSGTKLEIKR
notes: chimeric: murine variable regions fused to human constant regions; also called C1#-CH1
B13: C1H3L1 (antibody, human IgG1, kappa, V domains shown)
VH: EVQLVQSGAEVKKPGSSVKVSCKASGYTFSTSWMNWVRQAPGQGLEWMGQIYPGDGYTNYNVKFRGRVTITADKSTSTAYMELSSLRSEDTAVYYCAGDYEALWGQGTTVTVSS
VL: B12 VL with V2I, S14T, L15P, D17E, Q18P, R44K, K50Q, L88V, F92Y, S105Q
B14: C28H2L1 (antibody, human IgG1, kappa, V domains shown)
VH: EVQLVQSGAEVKKPGASVKVSCKASGYTFTDYYMNWVRQAPGQRLEWIGDINPNNVVTTYNQKFKGRATLTVDKSASTAYMELSSLRSEDTAVYYCASIIIVPDYFDYWGQGTTVTVSS
VL: DIQMTQSPSSVSASVGDRVTITCKASQNVGSNVAWYQQKPGKSPKALIYSASYRYSGVPSRFSGSGSGTDFTLTISSLQPEDFATYYCQQYNSYPYTFGGGTKVEIKR
B15: C9H8L1 (antibody, human IgG1, kappa, V domains shown)
VH: B14 VH with D50V, N54Y, N55T, V56G, V57R, Q62R, I99L, I100L, V102R, D104H
VL: B14 VL with V11L, S31T, F83V, Y87H, S93F, G100Q, V104L
B16: PL-19 (bispecific antibody)
chain 1: not shown
chain 2: DIVLTQSPASLAVSPGQRATITCRASESVSIHGTHLMHWYQQKPGQPPKLLIYAASKLESGVPARFSGSGSGTDFTLTINPVEAEDTANYYCQQSFEDPLTFGQGTKLEIKRTVASGIPPKIECLPIDISIDEGKVLTVASCFTGEPTPEVTWSTGGRKIHSQEQGRFHIENTDDSTTLTIKDVQKQDGGLYTLTLRNEFGSDSATVNIHIRSI
chain 3: not shown
chain 4: not shown

These binders were tested against hTSLP (human, UniProt Q969D9 29-159) (assay: method of Test Example 4 of WO2021139758).

Row | Binder | EC50 [nM]
1 | B1 | 3.23
2 | B2 | 2.18
3 | B3 | 3.18
4 | B4 | 3.17
5 | B5 | 2.64
6 | B6 | 3
7 | B7 | 2.88
8 | B8 | 3.33

Each binder was assayed against hIL5 (human, UniProt P05113 20-134) (assay: method of Test Example 4 of WO2021139758).

Row | Binder | EC50 [nM]
9 | B1 | 17.4
10 | B2 | 17.7
11 | B3 | 10.9
12 | B4 | 20.8
13 | B5 | 16
14 | B6 | 9.46
15 | B7 | 37
16 | B8 | 18.7

Target: T1, rat CGRP (rat, UniProt P01256 83-119)
T1 peptide (looked up): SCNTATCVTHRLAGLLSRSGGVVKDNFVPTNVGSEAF
Test: ELISA, coated CGRP
Description: (§1) In this test example, the abilities of the chimeric antibodies and humanized antibodies of C1 #, C9 #, C21 #, and C28 #to bind to human CGRP and rat CGRP were assessed using ELISAs. Plates were coated with […] human CGRP and rat CGRP, respectively, and blocked, and the antibodies, serially diluted, were then added. The plates were incubated for 1 h and washed, and a horseradish peroxidase-labeled anti-human Fc secondary antibody was then added. After incubation, color development was performed. […] The plates were incubated for 1 h and washed, and the antibodies, serially diluted, were then added. The plates were incubated for 1 h and washed, and a horseradish peroxidase-labeled streptavidin secondary antibody was then added. After incubation, color development was performed.

Row | Binder | EC50 [nM]
17 | B9 | 3.11
18 | B10 | 7.4
19 | B11 | 10.1
20 | B12 | 1.81
21 | B13 | 1.95
22 | B14 | 4.04
23 | B15 | 2.8

Target: T2, human CGRP (human, UniProt P06881 83-119)
T2 peptide (looked up): T1 peptide (looked up) with S1A, N3D, D25N, E35K
Test: ELISA, coated CGRP
Description: as §1

Row | Binder | EC50 [nM]
24 | B9 | 1.58
25 | B10 | 1.29
26 | B11 | 3.79
27 | B12 | 1.36
28 | B13 | 1.89
29 | B14 | 1.33
30 | B15 | 1.03

These binders were tested against CGRP (assay: cell-based or functional assay).

Row | Binder | IC50, inhibition of cAMP production in SK-N-MC cells [nM]
31 | B9 | 21
32 | B10 | 1.21
33 | B11 | 1.28
34 | B12 | 7.96
35 | B13 | 9.77
36 | B14 | 2.55
37 | B15 | 12.2

The binders below were run against hCTLA4 (human, UniProt P16410 36-161) (assay: ELISA of Test Example 4 of WO2021139758).
Chain of hCTLA4 (P16410 36-161 limits assumed): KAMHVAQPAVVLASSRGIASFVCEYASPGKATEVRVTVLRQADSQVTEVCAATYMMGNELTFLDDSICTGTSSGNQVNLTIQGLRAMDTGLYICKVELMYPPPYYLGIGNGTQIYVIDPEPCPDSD

Row | Binder | EC50 [nM]
38 | B16 | 6.5

The binders below were run against hPDL1 (human, UniProt Q9NZQ7 19-238) (assay: ELISA of Test Example 4 of WO2021139758).
Chain of hPDL1 (Q9NZQ7 19-238 limits assumed): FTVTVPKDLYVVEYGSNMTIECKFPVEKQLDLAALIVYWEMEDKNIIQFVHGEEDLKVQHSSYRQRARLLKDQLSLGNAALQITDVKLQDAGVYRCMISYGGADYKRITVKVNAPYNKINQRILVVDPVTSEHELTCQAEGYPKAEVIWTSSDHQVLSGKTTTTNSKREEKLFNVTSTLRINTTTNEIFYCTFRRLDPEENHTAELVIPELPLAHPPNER

Row | Binder | EC50 [nM]
39 | B16 | 1.6
